The values below come from paper PMC2873897 (Nature structural & molecular biology, 2010).

Bounds are passed on as bounds.

In data set [1] the target is C-cadherin ectodomain (Xenopus laevis) (UniProt P33148). Put plainly: AUC. Particulars: cited from earlier work.
For data set [2], the target named is E cadherin EC1-2 wild-type (WT) (mouse). The experiment in a line: AUC.
The target of data set [3] is E cadherin EC1-2 W2A (mouse). The experiment in a line: AUC.
For data set [4], the target named is E cadherin EC1-2 MR extension (mouse). Put plainly: AUC.
In data set [5] the target is E-cadherin ectodomain (Mus musculus) (UniProt P09803). Put plainly: AUC. As to conditions: cited from earlier work.
The target of data set [6] is T cadherin EC1-2 I2A (mouse). Put plainly: AUC.
Data set [7] has as its target T-cadherin EC1-2 wild-type (mouse) (UniProt Q9WTR5). The experiment in a line: SPR. On the technique in general: SPR reads the build-up and loss of mass on a sensor chip optically.
The target in data set [8] is T cadherin EC1-2 G extension (mouse) (UniProt Q9WTR5). Put plainly: AUC.
The target of data set [9] is T cadherin EC1-2 R14E/D140K (charge reversal rescue mutant) (mouse). The experiment in a line: AUC.
Data set [10] concerns the molecule itself. The experiment in a line: AUC.
Data set [11] deals with the molecule itself. The experiment in a line: AUC. This is another data set of the same source.

As usually defined, the Kd is a measure of binding affinity in units of concentration. Turning to “C-cadherin ectodomain (from UniProt P33148)”, the equilibrium dissociation constant (Kd) in data set [1] is 64 µM. Molecule “E cadherin EC1-2 wild-type (WT) (domain or fragment)” registered a dissociation constant (Kd) in data set [2] of 98.6 µM. In data set [3], “E cadherin EC1-2 W2A (domain or fragment)” gave a Kd of 916 µM.

As for “E cadherin EC1-2 MR extension (domain or fragment)”, in [4], the Kd stood at 258 µM.

Consider “E-cadherin ectodomain (from UniProt P09803)”, for which the Kd in [5] is 80 µM. “T cadherin EC1-2 I2A (domain or fragment)”: the equilibrium dissociation constant (Kd) in data set [6] was 37.1 µM. “T-cadherin EC1-2 R14S (domain or fragment)” returned a fold reduction of the binding level against wild type in data set [7] of 5 fold. “T cadherin EC1-2 G extension (from UniProt Q9WTR5 140-355) (domain or fragment)” gave a Kd in [8] of 16.5 µM. For “T cadherin EC1-2 R14E/D140K (charge reversal rescue mutant) (domain or fragment)”, the Kd in [9] was 149 µM. Turning to “T-cadherin EC1-2 R14S D140S (domain or fragment)”, the fold reduction of the binding level against wild type in data set [7] is over 5 fold.

B1: T-cadherin EC1-2 wild-type (domain or fragment, mouse)
chain: IVVSPILIPENQRQPFPRDVGKVVDSDRPEGSKFRLTGKGVDQDPKGTFRINENTGSVSVTRTLDRETIATYQLYVETTDASGKTLEGPVPLEVIVIDQNDNRPIFREGPYIGHVMEGSPTGTTVMRMTAFDADDPATDNALLRYNIRQQTPDKPSPNMFYIDPEKGDIVTVVSPALLDRETLENPKYELIIEAQDMAGLDVGLTGTATATIVIDD
By stoichiometry N is commonly meant the number of molecules, sites or subunits per partner or assembly. B1: the “stoichiometry N” value in “AUC [10]” came out at 2. Binding in the data set “AUC [11]” was put at a Kd of 41.4 ± 1.7 µM.
